The series deals with the molecule itself. Kind of series: cryo-EM structure; purified YnaI in LMNG at ~5 mg/ml, with 3 mM fluorinated Fos-Choline-8 added right before freezing; C7 symmetry imposed; 3.3 Å.

B1: YnaI (natural protein, Escherichia coli, UniProt P0AEB5 1-343, looked up)
chain: MIAELFTNNALNLVIIFGSCAALILMSFWFRRGNRKRKGFLFHAVQFLIYTIIISAVGSIINYVIENYKLKFITPGVIDFICTSLIAVILTIKLFLLINQFEKQQIKKGRDITSARIMSRIIKITIIVVLVLLYGEHFGMSLSGLLTFGGIGGLAVGMAGKDILSNFFSGIMLYFDRPFSIGDWIRSPDRNIEGTVAEIGWRITKITTFDNRPLYVPNSLFSSISVENPGRMTNRRITTTIGLRYEDAAKVGVIVEAVREMLKNHPAIDQRQTLLVYFNQFADSSLNIMVYCFTKTTVWAEWLAAQQDVYLKIIDIVQSHGADFAFPSQTLYMDNITPPEQGR
notes: YnaI, Escherichia coli, full-length, UniProt P0AEB5; in the model residues of TM-2 are built as Ala and N335-R343 have no density; Homoheptamer with co-purified lipids; Cloned into pET52b; also called mechanosensitive channel YnaI; MscS homolog YnaI; source: E. coli BL21(DE3) C43, purified in LMNG (TALON, thrombin cut, TALON flow-through, Superose 6); not shown: His-tag, C-terminal, cleaved
What is called stoichiometry N is a count of units in the complex or per binding partner. As for B1, the “stoichiometry N” value is 7.

For the origin of these results see publication PMC8137935, “Mechanosensitive channel YnaI has lipid-bound extended sensor paddles” (Communications Biology, 2021).
